± gives the standard deviation of the averaged measurements.
test system: Saccharomyces cerevisiae; experiment: protein stability index of tFT-peptide fusion (C-terminal peptide) (PSI (0-1 scale)); higher = more stable (slower turnover); settings: genetic background: wild type; temperature: 30 C
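Note: PSI is a weighted mean of sequencing reads over stability bins, variants kept only with over 10 reads, mCherry proximal and sfGFP distal, peptide attached via GGGS linker.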

Sequence | protein stability index
PHPPPSSRLLSR | 0.751 ± 0.058
PHPQPRPTAPSP | 0.7177 ± 0.002
PHPVTVFLSHLS | 0.499 ± 0.041
PHRPCPPPAPPP | 0.658 ± 0.0096
PHRPIGRVKHAS | 0.71 ± 0.038
PHSPPRPLPPPL | 0.703 ± 0.047
PHTPARSLPPSR | 0.6473 ± 0.0047
PIAPDPAPVGLD | 0.721 ± 0.014
PILPPVPPRASS | 0.7029 ± 0.0053
PIPSVFSPFLFA | 0.641 ± 0.015
PIQYMLRSSMPR | 0.688 ± 0.065
PISPPSFRSPTP | 0.691 ± 0.029
PISPSLCSSILS | 0.5893 ± 0.0056
PISRRVIFCLQT | 0.62 ± 0.033
PITFTSRYLLLE | 0.697 ± 0.042
PIVRTQLGNSVQ | 0.696 ± 0.067
PIYRNKGNRGGI | 0.739 ± 0.034
PKKKKKKTKAEK | 0.712 ± 0.035
PKSGPDQPQPPG | 0.591 ± 0.086
PLAFFSTRPTPF | 0.697 ± 0.03
PLALLPPPPHPP | 0.597 ± 0.07
PLAPPPLSPSPI | 0.7873 ± 0.0059
PLAPPPSILPVP | 0.703 ± 0.055

Sequence | protein stability index
PLAPPRHRRRPG | 0.7132 ± 0.0047
PLARLRFRSVVG | 0.6678 ± 0.0038
PLASRPHPLPPP | 0.671 ± 0.02
PLDAPDTRVWEI | 0.738 ± 0.061
PLFLCVISPFRL | 0.5805 ± 0.0018
PLFLYCRSAPRL | 0.817 ± 0.025
PLFPGLARLSSS | 0.703 ± 0.031
PLFPSPSPPRHP | 0.7435 ± 0.0018
PLFTPPPVLHHP | 0.752 ± 0.031
PLGFFHKQSATV | 0.666 ± 0.023
PLGLPLPCPFLL | 0.683 ± 0.063
PLHPLPPAPFPP | 0.689 ± 0.01
PLIDRSTCSLSG | 0.6366 ± 0.0032
PLIVSPCYSLVP | 0.659 ± 0.014
PLLGPSCLRPPS | 0.791 ± 0.17
PLLIPPPPTYPP | 0.63 ± 0.038
PLLLAPPPPSPP | 0.739 ± 0.036
PLLPPALPASPF | 0.6972 ± 0.0019
PLLPPPLSPFPH | 0.659 ± 0.013
PLLPPPPPLSPP | 0.6772 ± 0.0035
PLLPRSILSATG | 0.641 ± 0.043
PLLPRTPPLSAT | 0.671 ± 0.0079
PLLPSLPLPPSP | 0.716 ± 0.011

Sequence | protein stability index
PLLRGFPAHLAS | 0.699 ± 0.078
PLNHIVHPHRAP | 0.687 ± 0.0052
PLPAPAPSPPSP | 0.695 ± 0.018
PLPHSPPPPPPT | 0.736 ± 0.024
PLPLLPLPPLAP | 0.67 ± 0.098
PLPLPPPFPPLS | 0.59 ± 0.043
PLPLPSPAPPYS | 0.68 ± 0.013
PLPLPTPPAFLS | 0.707 ± 0.08
PLPPASPCLCSY | 0.643 ± 0.049
PLPPHRLPNPRL | 0.784 ± 0.011
PLPPLPPPLSPP | 0.732 ± 0.067
PLPPLPPTRPLP | 0.688 ± 0.026
PLPPPFPGSALL | 0.727 ± 0.01
PLPPPLDLPPRS | 0.735 ± 0.12
PLPPPNPPLPVF | 0.615 ± 0.036
PLPPPPAPPLSP | 0.67 ± 0.018
PLPPPPDSPPLP | 0.694 ± 0.013
PLPPPSLPPSPS | 0.699 ± 0.036
PLPPSPLESVDT | 0.637 ± 0.027
PLPPSPTRPPAN | 0.662 ± 0.0099
PLPPVPRTPTPR | 0.662 ± 0.075
PLPPVVPTFSTP | 0.684 ± 0.0077
PLPRLSPFSHPP | 0.701 ± 0.052

Sequence | protein stability index
PLPSPSSSSSPI | 0.674 ± 0.043
PLRDIRSVRYSS | 0.685 ± 0.053
PLRMFRGGISWR | 0.734 ± 0.037
PLRPPAPRHSPP | 0.723 ± 0.013
PLRRPFSSPFLL | 0.59 ± 0.067
PLRSDSRAESLL | 0.653 ± 0.051
PLRSTYPSLLLP | 0.691 ± 0.011
PLRTCPCAPLPS | 0.689 ± 0.012
PLSDDPRRPLST | 0.688 ± 0.069
PLSLLVHPLPPS | 0.679 ± 0.011
PLSPAPPRPPPP | 0.621 ± 0.023
PLSPRPLPPPPP | 0.713 ± 0.0018
PLSPRSASTFSP | 0.67 ± 0.0013
PLSPSCTLPPRP | 0.674 ± 0.034
PLSTPLSPALLS | 0.602 ± 0.023
PLSYRPPSRFYF | 0.587 ± 0.061
PLTRSRFLLSPL | 0.653 ± 0.034
PLTVARTHRGHA | 0.689 ± 0.014
PLVVETNRFGDV | 0.6988 ± 0.004
PMHVILGLSGQP | 0.732 ± 0.059
PMLRSLVVLSSR | 0.669 ± 0.022
PMPRHVPRPTTP | 0.674 ± 0.06
PNPLCQPPTGRP | 0.705 ± 0.14

Sequence | protein stability index
PNPPYFPSPGRS | 0.74 ± 0.044
PNRKCSGTFAAS | 0.65573 ± 0.00064
PNTNIRTHCQWI | 0.709 ± 0.02
PNVAIMSGGQTV | 0.6912 ± 0.0059
PPACAHPLFWTL | 0.6499 ± 0.00087
PPACPSSRIPVF | 0.615 ± 0.041
PPALRPPPPPPP | 0.6932 ± 0.0019
PPAPHPHLPSSY | 0.685 ± 0.072
PPAPLPLAPSSL | 0.722 ± 0.042
PPAPPLPSSPSP | 0.773 ± 0.024
PPAPPSPPHPPL | 0.7133 ± 0.0036
PPAPRLPPPLPP | 0.629 ± 0.021
PPAPSPPPLPAA | 0.665 ± 0.031
PPASFTPPFLPP | 0.69 ± 0.013
PPASPRSPIVSR | 0.723 ± 0.059
PPATQSPPLPPC | 0.766 ± 0.037
PPCFPHPLPPPR | 0.744 ± 0.022
PPCPFPTLPVTH | 0.73 ± 0.013
PPCTSTTQRANP | 0.696 ± 0.073
PPDLPTRSPDNP | 0.658 ± 0.04
PPDSSPLGGEVG | 0.6775 ± 0.0058
PPFAPAPALSAS | 0.758 ± 0.11
PPFFFIDMGASN | 0.697 ± 0.054

Sequence | protein stability index
PPFFPLRPSLVL | 0.656 ± 0.051
PPFLRSALRSSS | 0.672 ± 0.015
PPFLYVLVSSIL | 0.54 ± 0.15
PPFPHPSRLPPA | 0.726 ± 0.028
PPFPPAPPRGPA | 0.659 ± 0.043
PPGLPPGPARPP | 0.635 ± 0.036
PPGPPPSSPPPP | 0.73 ± 0.024
PPGSPPSLHLPP | 0.734 ± 0.021
PPHCPLVLPSLS | 0.67 ± 0.044
PPHHPPPTLFPA | 0.698 ± 0.076
PPHNPTPSPTTP | 0.719 ± 0.11
PPHPLSLSLRPP | 0.634 ± 0.034
PPHPPLPPPSPS | 0.704 ± 0.056
PPHPPNFSSPPP | 0.656 ± 0.023
PPHPPPPAPLPS | 0.73 ± 0.029
PPHPPPPSPTPP | 0.656 ± 0.019
PPHPVTLSPART | 0.614 ± 0.04
PPHTHTQRPSPT | 0.715 ± 0.027
PPILLPPPDASH | 0.702 ± 0.025
PPINPTEPPITI | 0.696 ± 0.092
PPIPNPPPHPLP | 0.657 ± 0.057
PPLCRSFPPASL | 0.791 ± 0.061
PPLFTAAPRRWS | 0.752 ± 0.093

Sequence | protein stability index
PPLLDASPAPIL | 0.689 ± 0.024
PPLLLTSLMLLP | 0.655 ± 0.034
PPLLPPVSPPPP | 0.684 ± 0.061
PPLLQPPPPRLL | 0.736 ± 0.048
PPLPATHLPPPP | 0.802 ± 0.058
PPLPLLPPLPPP | 0.644 ± 0.034
PPLPLPSPPTPH | 0.654 ± 0.021
PPLPLTSPPPSP | 0.631 ± 0.024
PPLPPAPTPALP | 0.684 ± 0.029
PPLPPPFSPLPP | 0.686 ± 0.025
PPLPPPLLPFSI | 0.747 ± 0.019
PPLPPPPPAPAP | 0.634 ± 0.016
PPLPPPPRSPPS | 0.7565 ± 0.0021
PPLPPPSPESVS | 0.709 ± 0.056
PPLPPSPPRSPP | 0.552 ± 0.029
PPLPSPPAPPAP | 0.655 ± 0.0086
PPLPSPPQPYSA | 0.639 ± 0.013
PPLPSSLPPISF | 0.703 ± 0.015
PPLRPFLLPPPS | 0.722 ± 0.077
PPLRPHHPLYHS | 0.687 ± 0.011
PPLSLLPSSSPH | 0.664 ± 0.0081
PPLSPTLTIPPP | 0.698 ± 0.079

From the supplement of paper PMC10724198
